According to the supplement of paper PMC6757056:
± gives the standard deviation of the averaged measurements.

B1: library; a variant is named by its letters at N, in order (parent)
chain: GCUGUCACCGAGAAACUGUGAAGUAUAUCUUAAACCUGGGCACUUAAAAGAUAUAUGGAGUUAGUAGUGCAACCUGCUCGGUCUGAUGAGUCCNNNNNNGGACGAAACAGC

Experiments:
[1] = variants of: B1; assay: normalized RNA/DNA level without ligand (relative to sTRSVctl = 100) (log10 (% of sTRSVctl)); HEK293T; ligand: cyclic di-GMP (c-di-GMP-II aptamer); higher = less ribozyme self-cleavage, higher mRNA level; settings: reporter: mCherry (pCS4076), ligand present: no
In short: (§1)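 Library plasmids carrying ribozyme switches linked to mCherry, or to eGFP in some ligand experiments, were transfected into HEK293T at 4 µg per 6-well well, with any ligand added 1 h earlier. Seventy-two hours on, total RNA was extracted with EDTA and reverse-transcribed, amplified, barcoded and sequenced. RNA level was RNA over DNA reads normalized to a spiked-in non-cleaving sequence or to the top sequences, then scaled and log-transformed. The top set was 25 sequences, the transform was ×100 and log10, and sequences needed ≥100 DNA reads.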

[2] = variants of: B1; assay: normalized RNA/DNA level with ligand (relative to sTRSVctl = 100) (log10 (% of sTRSVctl)); HEK293T; ligand: cyclic di-GMP (c-di-GMP-II aptamer); ligand concentration (+) RNA-Seq: 1 mM; higher = less ribozyme self-cleavage, higher mRNA level; settings: reporter: mCherry (pCS4076), ligand present: yes
In short: as §1

Variant | normalized RNA/DNA level without ligand (log10) [1] | normalized RNA/DNA level with ligand (log10) [2]
GCUGUCACCGAGAAACUGUGAAGUAUAUCUUAAACCUGGGCACUUAAAAGAUAUAUGGAGUUAGUAGUGCAACCUGCUCGGUCUGAUGAGUCCCUCAGCGGACGAAACAGC [CUCAGC] | 1.76 ± 0.076 | 1.89 ± 0.13
GCUGUCACCGAGAAACUGUGAAGUAUAUCUUAAACCUGGGCACUUAAAAGAUAUAUGGAGUUAGUAGUGCAACCUGCUCGGUCUGAUGAGUCCCUCAGUGGACGAAACAGC [CUCAGU] | 1.75 ± 0.018 | 1.83 ± 0.07
GCUGUCACCGAGAAACUGUGAAGUAUAUCUUAAACCUGGGCACUUAAAAGAUAUAUGGAGUUAGUAGUGCAACCUGCUCGGUCUGAUGAGUCCCUCAGGGGACGAAACAGC [CUCAGG] | 1.8 ± 0.037 | 1.87 ± 0.14
GCUGUCACCGAGAAACUGUGAAGUAUAUCUUAAACCUGGGCACUUAAAAGAUAUAUGGAGUUAGUAGUGCAACCUGCUCGGUCUGAUGAGUCCAUCAUAGGACGAAACAGC [AUCAUA] | 1.615 ± 0.0089 | 1.74 ± 0.075
GCUGUCACCGAGAAACUGUGAAGUAUAUCUUAAACCUGGGCACUUAAAAGAUAUAUGGAGUUAGUAGUGCAACCUGCUCGGUCUGAUGAGUCCAUCAUCGGACGAAACAGC [AUCAUC] | 1.8459 ± 0.00049 | 1.935 ± 0.0035
GCUGUCACCGAGAAACUGUGAAGUAUAUCUUAAACCUGGGCACUUAAAAGAUAUAUGGAGUUAGUAGUGCAACCUGCUCGGUCUGAUGAGUCCAUCAUGGGACGAAACAGC [AUCAUG] | 1.62 ± 0.019 | 1.78 ± 0.11
GCUGUCACCGAGAAACUGUGAAGUAUAUCUUAAACCUGGGCACUUAAAAGAUAUAUGGAGUUAGUAGUGCAACCUGCUCGGUCUGAUGAGUCCAUCAUUGGACGAAACAGC [AUCAUU] | 1.695 ± 0.0081 | 1.79 ± 0.12
GCUGUCACCGAGAAACUGUGAAGUAUAUCUUAAACCUGGGCACUUAAAAGAUAUAUGGAGUUAGUAGUGCAACCUGCUCGGUCUGAUGAGUCCUUCAGGGGACGAAACAGC [UUCAGG] | 1.82 ± 0.048 | 1.88 ± 0.12
GCUGUCACCGAGAAACUGUGAAGUAUAUCUUAAACCUGGGCACUUAAAAGAUAUAUGGAGUUAGUAGUGCAACCUGCUCGGUCUGAUGAGUCCUUCAGCGGACGAAACAGC [UUCAGC] | 1.78 ± 0.082 | 1.9 ± 0.13
GCUGUCACCGAGAAACUGUGAAGUAUAUCUUAAACCUGGGCACUUAAAAGAUAUAUGGAGUUAGUAGUGCAACCUGCUCGGUCUGAUGAGUCCUUCAGUGGACGAAACAGC [UUCAGU] | 1.75 ± 0.023 | 1.89 ± 0.069
GCUGUCACCGAGAAACUGUGAAGUAUAUCUUAAACCUGGGCACUUAAAAGAUAUAUGGAGUUAGUAGUGCAACCUGCUCGGUCUGAUGAGUCCUUCAGAGGACGAAACAGC [UUCAGA] | 1.7 ± 0.084 | 1.81 ± 0.069
GCUGUCACCGAGAAACUGUGAAGUAUAUCUUAAACCUGGGCACUUAAAAGAUAUAUGGAGUUAGUAGUGCAACCUGCUCGGUCUGAUGAGUCCCUCACUGGACGAAACAGC [CUCACU] | 1.57 ± 0.052 | 1.77 ± 0.092
GCUGUCACCGAGAAACUGUGAAGUAUAUCUUAAACCUGGGCACUUAAAAGAUAUAUGGAGUUAGUAGUGCAACCUGCUCGGUCUGAUGAGUCCAUCAGGGGACGAAACAGC [AUCAGG] | 1.62 ± 0.072 | 1.77 ± 0.12
GCUGUCACCGAGAAACUGUGAAGUAUAUCUUAAACCUGGGCACUUAAAAGAUAUAUGGAGUUAGUAGUGCAACCUGCUCGGUCUGAUGAGUCCAUCAGCGGACGAAACAGC [AUCAGC] | 1.82 ± 0.025 | 1.88 ± 0.13
GCUGUCACCGAGAAACUGUGAAGUAUAUCUUAAACCUGGGCACUUAAAAGAUAUAUGGAGUUAGUAGUGCAACCUGCUCGGUCUGAUGAGUCCAUCAGUGGACGAAACAGC [AUCAGU] | 1.67 ± 0.065 | 1.82 ± 0.02
GCUGUCACCGAGAAACUGUGAAGUAUAUCUUAAACCUGGGCACUUAAAAGAUAUAUGGAGUUAGUAGUGCAACCUGCUCGGUCUGAUGAGUCCGUCAUAGGACGAAACAGC [GUCAUA] | 1.57 ± 0.025 | 1.76 ± 0.14
GCUGUCACCGAGAAACUGUGAAGUAUAUCUUAAACCUGGGCACUUAAAAGAUAUAUGGAGUUAGUAGUGCAACCUGCUCGGUCUGAUGAGUCCGUCAUUGGACGAAACAGC [GUCAUU] | 1.66 ± 0.061 | 1.81 ± 0.12
GCUGUCACCGAGAAACUGUGAAGUAUAUCUUAAACCUGGGCACUUAAAAGAUAUAUGGAGUUAGUAGUGCAACCUGCUCGGUCUGAUGAGUCCGUCAUGGGACGAAACAGC [GUCAUG] | 1.61 ± 0.037 | 1.75 ± 0.11
GCUGUCACCGAGAAACUGUGAAGUAUAUCUUAAACCUGGGCACUUAAAAGAUAUAUGGAGUUAGUAGUGCAACCUGCUCGGUCUGAUGAGUCCCUCAUGGGACGAAACAGC [CUCAUG] | 1.68 ± 0.031 | 1.82 ± 0.14
GCUGUCACCGAGAAACUGUGAAGUAUAUCUUAAACCUGGGCACUUAAAAGAUAUAUGGAGUUAGUAGUGCAACCUGCUCGGUCUGAUGAGUCCCUCAUUGGACGAAACAGC [CUCAUU] | 1.79 ± 0.079 | 1.9 ± 0.12
GCUGUCACCGAGAAACUGUGAAGUAUAUCUUAAACCUGGGCACUUAAAAGAUAUAUGGAGUUAGUAGUGCAACCUGCUCGGUCUGAUGAGUCCGUCAGAGGACGAAACAGC [GUCAGA] | 1.56 ± 0.057 | 1.76 ± 0.076
GCUGUCACCGAGAAACUGUGAAGUAUAUCUUAAACCUGGGCACUUAAAAGAUAUAUGGAGUUAGUAGUGCAACCUGCUCGGUCUGAUGAGUCCGUCAGUGGACGAAACAGC [GUCAGU] | 1.63 ± 0.022 | 1.77 ± 0.15
GCUGUCACCGAGAAACUGUGAAGUAUAUCUUAAACCUGGGCACUUAAAAGAUAUAUGGAGUUAGUAGUGCAACCUGCUCGGUCUGAUGAGUCCGUCAGCGGACGAAACAGC [GUCAGC] | 1.67 ± 0.017 | 1.83 ± 0.17
GCUGUCACCGAGAAACUGUGAAGUAUAUCUUAAACCUGGGCACUUAAAAGAUAUAUGGAGUUAGUAGUGCAACCUGCUCGGUCUGAUGAGUCCUUCAUAGGACGAAACAGC [UUCAUA] | 1.69 ± 0.019 | 1.82 ± 0.12
GCUGUCACCGAGAAACUGUGAAGUAUAUCUUAAACCUGGGCACUUAAAAGAUAUAUGGAGUUAGUAGUGCAACCUGCUCGGUCUGAUGAGUCCUUCAUGGGACGAAACAGC [UUCAUG] | 1.698 ± 0.013 | 1.83 ± 0.087
GCUGUCACCGAGAAACUGUGAAGUAUAUCUUAAACCUGGGCACUUAAAAGAUAUAUGGAGUUAGUAGUGCAACCUGCUCGGUCUGAUGAGUCCUUCAUUGGACGAAACAGC [UUCAUU] | 1.77 ± 0.074 | 1.89 ± 0.094
